Marks after values point to notes of the source that are not given here.
B1: 4133-6294 BYbe: anti-CD45 BYbe (Fab-scFv): 4133 Fab HC-G4S linker-6294 scFv heavy chain paired with 4133 light chain (antibody)
heavy: QEQLVESGGGLVQPEGSLTLTCTASGFSFSGNYYMCWVRQAPGKGLEWIGCLYTGSSGSTYYASWAKGRFTISKTSSTTVTLQMTSLTAADTATYFCARDLGYEIDGYGGLWGQGTLVTVSSGQPKAPSVFPLAPCCGDTPSSTVTLGCLVKGYLPEPVTVTWNSGTLTNGVRTFPSVRQSSGLYSLSSVVSVTSSSQPVTCNVAHPATNTKVDKTVAPSTCSKPGGGGSGGGGSEVQLVESGAELARPGASVKMSCKASGYTFTSYTMHWVKQRPGQCLEWIGYINPSSGYTEYNQKFKDKTTLTADKSSSTAYLQLSSLTSEDSAVYYCARVGDGFYPSWLAYWGQGTLVTVSSGGGGSGGGGSGGGGSGGGGSDIQMTQSPKFLLVSAGDRVTITCKASQSVRNDVAWYQQKPGQSPKLLIFYASKRYTGVPDRFTGSGYGTDFTFTISTVQAEDLAVYFCQQDYSSPTTFGCGTKLEIK
light: AQVLTQTPSPVSAVVGGTVSISCQASQSVYNNNNLSWYQQKPGQPPKLLIYDASKLASGVPSRFKGSGSGTQFTLTISGVQCDDAATYYCLGGYYSSGWYFAFGGGTKVVVKRTPVAPTVLIFPPAADQVATGTVTIVCVANKYFPDVTVTWEVDGTTQTTGIENSKTPQNSADCTYNLSSTLTLTSTQYNSHKEYTCKVTQGTTSVVQSFNRGDC

What was measured:
Assay type in all cases: cell-based
MC116 = assay: Apoptosis of cell lines: MC116; conditions: MC116, 21 hrs
Source text: (§1) The following cell lines representing various leukaemia's and lymphoma's, as classified by ATCC (www.atcc.org/), were used: Jurkat—acute T-cell leukaemia; CCRF-SB—B-cell acute lymphoblastic leukaemia; MC116—B-cell undifferentiated lymphoma; Raji, Ramos—Burkitt lymphoma (rare form of B-cell non-Hodgkin lymphoma); SU-DHL-4, SU-DHL-5, SU-DHL-8, NU-DUL-1, OCI-Ly3—Diffuse large B-cell lymphoma; THP-1—acute monocytic leukaemia; and Dakiki—B cell nasopharyngeal carcinoma.
(§2) Prior to an assay being performed, 1 vial of each of the above cell lines was thawed in a 37° C. water bath and then added to 20 ml complete media (RPMI 1640+2 mM GlutaMAX+1% Pen/Strep, all previous supplied by Invitrogen, +10% Fetal Bovine Serum (FBS), Sigma Aldrich). Cells were spun (500 g, 5 min, at RT) and re-suspended in 20 ml complete media to wash and spun again. Cells were resuspended in 10 ml complete media and then counted using a ChemoMetec NucleoCounter NC-3000. 6×10^6 cells of each cell line were spun (500 g, 5 min, at RT) and re-suspended in 4.8 ml complete media. 1×10^5 cells in 80 μl were then added to each well of a Corning Costar 96-well, cell culture treated, U-shaped-bottom microplate (cat no. 07-200-95). The plate was rested in a 37° C., 5% CO2 incubator for 2 hrs
(§3) Stocks of 4133-6294 BYbe and NegCtrl BYbe at 2500 nM in complete media were prepared. In a Greiner 96-well non-binding microplate, both reagents were serially diluted in complete media 1 in 5, seven times to produce to form an 8-point dose curve. […] (final well concentrations 500-0.0064 nM) was added to the cells. Each concentration was produced in triplicate. Camptothecin (cat no. C9911-100MG, Sigma Aldrich) and Staurosporine (cat no. 56942-200UL, Sigma Aldrich) were added as positive controls of apoptosis. Both were diluted in complete media and added to the well to produce a final concentration of 5 μM. Additional positive controls included anti-thymocyte globulin (ATG, indicated by FDA for use in conditioning regimens), Rituximab (anti-CD20, indicated by FDA for Non-Hodgkin Lymphoma and Chronic Lymphocytic Leukaemia) and Campath (anti-CD52, indicated by FDA for B-cell Chronic Lymphocytic Leukaemia). Anti-thymocyte globulin, Rituximab and Campath were added to the wells to produce final concentrations of 200 μg/ml, 500 nM and 200 μg/ml, respectively. […]
(§4) Following the incubation, the plates were spun at 500 g, 5 min, RT, the buffer was aspirated with a BioTek ELx405 microplate washer, and the cells were re-suspended in FACS buffer (PBS+1% bovine serum albumin (BSA)+0.1% NaN3+2 mM EDTA, Sigma Aldrich) to wash and then re-spun and buffer was aspirated to leave the cells in 20 μl residual media. […] Cells were analysed using the Bio-Rad ZE5 Cell Analyzer. […]

SU-DHL-4 = assay: Apoptosis of cell lines: SU-DHL-4; conditions: SU-DHL-4, 21 hrs
Source text: as §1, §2, §3, §4

SU-DHL-8 = assay: Apoptosis of cell lines: SU-DHL-8; conditions: SU-DHL-8, 21 hrs
Source text: as §1, §2, §3, §4

SU-DHL-5 = assay: Apoptosis of cell lines: SU-DHL-5; conditions: SU-DHL-5, 21 hrs
Source text: as §1, §2, §3, §4

CCRF-SB = assay: Apoptosis of cell lines: CCRF-SB; conditions: 21 hrs
Source text: as §1, §2, §3, §4

Dakiki = assay: Apoptosis of cell lines: Dakiki; conditions: 21 hrs
Source text: as §1, §2, §3, §4

Molecule | Campath mean (%) cell reduction (MC116; 200 μg/ml) [%] | Campath mean (%) cell reduction (SU-DHL-4; 200 μg/ml) [%] | Campath mean (%) cell reduction (SU-DHL-8; 200 μg/ml) [%] | Campath mean (%) cell reduction (SU-DHL-5; 200 μg/ml) [%] | Campath mean (%) cell reduction (CCRF-SB; 200 μg/ml) [%] | Campath mean (%) cell reduction (Dakiki; 200 μg/ml) [%] | Top (%) level of % cell reduction (MC116) [%] | Bottom (%) level of % cell reduction (MC116; calculated bottom of non-sigmoidal curve) | Bottom (%) level of % cell reduction (SU-DHL-4) [%] | Top (%) level of % cell reduction (SU-DHL-4) [%] | Bottom (%) level of % cell reduction (SU-DHL-8) [%] | Top (%) level of % cell reduction (SU-DHL-8) [%] | Bottom (%) level of % cell reduction (SU-DHL-5) [%] | Top (%) level of % cell reduction (SU-DHL-5) [%] | Bottom (%) level of % cell reduction (CCRF-SB) [%] | Top (%) level of % cell reduction (CCRF-SB) [%] | Bottom (%) level of % cell reduction (Dakiki) [%] | Top (%) level of % cell reduction (Dakiki) [%]
Campath: anti-CD52, clinical grade, indicated by FDA for B-cell Chronic Lymphocytic Leukaemia; positive control [reference compound] | 70.24 | 92.46 | 7.97 | 26.74 | 24.86 | 8.83 |  |  |  |  |  |  |  |  |  |  |  | 
B1 |  |  |  |  |  |  | 99.45 | −65.46* % | 16.98 | 91.88 | -2.97 | 16.77 | 43.93 | 91.01 | 13.95 | 83.40 | 10.88 | 76.37
